Measured values as given in patent US20240150466A1 (DYNAMICURE BIOTECHNOLOGY, published 2024).
Where two headings read alike, the source gives them in different places.

What was measured:
[1] = biological target: T1, His-tagged human IGFBP7 recombinant protein (human, UniProt Q16270 27-282); test: flow cytometry blockade assay: nanobody 50 ug/mL pre-incubated with His-tagged human IGFBP7 1 ug/mL, then human CD93 CHO cells (FIG. 14)
T1 construct: not shown: His tag
T1 sequence: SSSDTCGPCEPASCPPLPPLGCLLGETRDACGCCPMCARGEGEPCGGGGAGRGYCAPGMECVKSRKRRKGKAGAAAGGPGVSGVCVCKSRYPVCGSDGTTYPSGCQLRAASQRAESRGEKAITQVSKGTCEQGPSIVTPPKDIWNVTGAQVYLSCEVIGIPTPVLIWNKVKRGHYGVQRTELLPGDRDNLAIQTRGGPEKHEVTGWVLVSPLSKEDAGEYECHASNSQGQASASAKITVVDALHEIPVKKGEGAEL
Description: Anti-IGFBP7 nanobodies and nanobody-Fc fusions (50 μg/mL) generated in previous examples was incubated with His-tagged human IGFBP7 recombinant protein (1 μg/mL) for 30 minutes in 4° C. Human CD93 expressing CHO cells (1×10⁵ per well) were treated the mixture for 30 minutes at 4° C. Then the cells were washed with FACS buffer and incubated with anti-IGFBP7 monoclonal rabbit antibody (Sino Biological Inc, Catalog #13100-R003) at 1 μg/mL for 30 minutes in 4° C. After incubation, the cells were washed with FACS buffer and incubated with PE-conjugated anti-rabbit IgG antibody ([…]) for 30 minutes in 4° C. After washing with FACS buffer twice, the samples were analyzed and data acquired in NovoCyte Flow.

[2] = biological target: T2, human IGFBP7 recombinant protein (UniProt Q16270 27-282, biotinylated with EZ-LINK NHS-PEG4 biotin in the BLI assays (sites not given)); test: BLI
T2 chain: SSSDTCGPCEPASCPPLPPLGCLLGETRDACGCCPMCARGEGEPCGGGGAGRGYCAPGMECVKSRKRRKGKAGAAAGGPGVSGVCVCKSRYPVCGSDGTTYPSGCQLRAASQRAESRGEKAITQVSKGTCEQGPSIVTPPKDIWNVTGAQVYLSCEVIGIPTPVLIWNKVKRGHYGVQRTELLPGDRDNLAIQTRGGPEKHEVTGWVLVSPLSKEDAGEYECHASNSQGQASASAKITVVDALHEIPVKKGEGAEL

[3] = biological target: T3, mouse IGFBP7 recombinant protein (mouse, UniProt Q61581 26-281, biotinylated with EZ-LINK NHS-PEG4 biotin in the BLI assays (sites not given)); test: BLI
T3 chain: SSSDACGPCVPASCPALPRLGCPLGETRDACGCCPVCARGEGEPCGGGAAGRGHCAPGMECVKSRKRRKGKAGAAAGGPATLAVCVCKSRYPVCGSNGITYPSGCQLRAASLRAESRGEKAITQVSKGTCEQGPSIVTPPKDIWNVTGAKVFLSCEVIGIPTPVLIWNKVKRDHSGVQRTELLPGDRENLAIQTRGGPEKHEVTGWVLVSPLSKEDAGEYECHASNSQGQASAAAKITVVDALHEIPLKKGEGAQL

[4] = biological target: T2, human IGFBP7 recombinant protein; test: BLI
[5] = biological target: T3, mouse IGFBP7 recombinant protein; test: BLI
[6] = biological target: T2, human IGFBP7 recombinant protein; test: BLI
[7] = biological target: T3, mouse IGFBP7 recombinant protein; test: BLI
[8] = biological target: T4, mouse IGFBP7 recombinant protein (mouse, UniProt Q61581 26-281, limits assumed, biotinylated with EZ-LINK NHS-PEG4 biotin in the BLI assays (sites not given)); test: BLI (Octet QKe), biotinylated IGFBP7 on streptavidin biosensors (FIG. 10)
T4 construct: Soluble protein in ELISA and BLI; also called mIGFBP7
T4 sequence (looked up): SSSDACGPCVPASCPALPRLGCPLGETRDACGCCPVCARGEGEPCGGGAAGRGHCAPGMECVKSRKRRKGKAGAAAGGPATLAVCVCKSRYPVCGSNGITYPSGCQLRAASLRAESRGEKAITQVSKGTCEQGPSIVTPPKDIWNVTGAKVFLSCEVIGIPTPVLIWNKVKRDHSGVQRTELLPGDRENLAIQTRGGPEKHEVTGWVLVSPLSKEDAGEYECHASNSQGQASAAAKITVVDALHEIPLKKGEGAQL
Description: (§1) The binding affinity of anti-IGFBP7 nanobody Fc-fusion constructs (e.g., VHH-Fc-fusion constructs) were determined with bio-layer interferometry (BLI) using Octet QKe (Fortebio). Human, mouse, and cynomolgus IGFBP7 were biotinylated using EZ-LINK NHS-PEG4 biotin (Thermo Fisher Scientific). Streptavidin biosensors (ForteBio) were used to load biotinylated IGFBP7 protein (300 seconds in 5 μg/mL). Baseline was stabilized for 60 seconds in 1× kinetics buffer (ForteBio) before anti-IGFBP7 Fc-fucion proteins (serial dilution) were allowed to associate for 300 seconds with captured hIGFBP7 or mIGFBP7. Then the sensors were dissociated in 1× kinetics buffer for 600 seconds. Data analysis was performed on ForteBio Data Analysis HT 11.1 software.

[9] = biological target: T5, cynomolgus IGFBP7 recombinant protein (cynomolgus); test: BLI
T5 chain: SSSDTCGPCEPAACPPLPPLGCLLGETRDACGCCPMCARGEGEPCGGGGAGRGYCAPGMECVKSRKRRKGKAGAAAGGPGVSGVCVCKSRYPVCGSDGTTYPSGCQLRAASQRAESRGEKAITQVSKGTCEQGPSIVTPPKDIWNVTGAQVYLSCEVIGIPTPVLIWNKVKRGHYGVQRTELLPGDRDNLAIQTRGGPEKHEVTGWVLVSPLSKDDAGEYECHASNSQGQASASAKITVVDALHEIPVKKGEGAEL

[10] = biological target: T6, human IGFBP7 recombinant protein (human, UniProt Q16270 27-282, biotinylated with EZ-LINK NHS-PEG4 biotin in the BLI assays (sites not given)); test: BLI (Octet QKe), biotinylated IGFBP7 on streptavidin biosensors (FIG. 9)
T6 construct: Soluble protein used for ELISA coating and, biotinylated, on streptavidin biosensors (Octet); also called hIGFBP7; biotinylated IGFBP7 protein
T6 sequence: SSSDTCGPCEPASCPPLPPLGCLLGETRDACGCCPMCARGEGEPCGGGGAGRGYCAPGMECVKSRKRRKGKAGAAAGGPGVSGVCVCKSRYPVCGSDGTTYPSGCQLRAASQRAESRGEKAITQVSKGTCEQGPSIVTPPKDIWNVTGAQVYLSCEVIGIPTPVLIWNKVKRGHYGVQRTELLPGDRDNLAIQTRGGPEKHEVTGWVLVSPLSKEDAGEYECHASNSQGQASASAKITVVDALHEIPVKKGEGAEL
Description: as §1

[11] = biological target: T7, mouse IGFBP7 displayed on cells (HEK293T or CHO-K1) (mouse, UniProt Q61581 26-281); test: FACS on mIGFBP7-expressing CHO-K1 cells (FIG. 5)
T7 construct: whole, on cells;domain: CD80 transmembrane domain; also called mIGFBP7; mIGFBP7-HEK cells; not shown: linker; CD80 transmembrane domain
T7 sequence (looked up): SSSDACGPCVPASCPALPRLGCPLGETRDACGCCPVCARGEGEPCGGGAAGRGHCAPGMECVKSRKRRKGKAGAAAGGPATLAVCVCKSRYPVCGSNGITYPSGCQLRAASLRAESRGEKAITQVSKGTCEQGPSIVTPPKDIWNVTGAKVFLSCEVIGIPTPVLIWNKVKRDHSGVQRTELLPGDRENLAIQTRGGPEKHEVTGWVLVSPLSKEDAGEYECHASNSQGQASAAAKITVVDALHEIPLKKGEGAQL

[12] = biological target: T6, human IGFBP7 recombinant protein; test: ELISA
[13] = biological target: T4, mouse IGFBP7 recombinant protein; test: ELISA
[14] = biological target: T7, mouse IGFBP7 displayed on cells …; test: flow cytometry on mouse IGFBP7 displaying HEK293T cells, nanobody 10 ug/ml, APC anti-HIS detection
Description: (§2) Human IGFBP7 and mouse IGFBP7 displaying HEK293T cells were detached by incubation with TrypLE reagents (Thermos Fisher), which preserves the integrity of IGFBP7 on the cell surface. Then the cells were incubated with anti-IGFBP7 nanobodies at 10 μg/ml for 30 minutes in 4° C. After washing by FACS buffer, the cells were incubated with APC conjugated anti-HIS antibodies (Biolegend) for 30 minutes in 4° C. After washing by FACS buffer twice, the samples were acquired in NovoCyte Flow Cytometer and analyzed by NovoExpress software.

[15] = biological target: T8, human IGFBP7 displayed on HEK293T cells (human, UniProt Q16270 27-282); test: flow cytometry on human IGFBP7 displaying HEK293T cells, nanobody 10 ug/ml, APC anti-HIS detection
T8 construct: domain: CD80 transmembrane domain; signal peptide stated as residues 1-26; also called hIGFBP7; hIGFBP7-HEK cells; not shown: linker; CD80 transmembrane domain
T8 sequence: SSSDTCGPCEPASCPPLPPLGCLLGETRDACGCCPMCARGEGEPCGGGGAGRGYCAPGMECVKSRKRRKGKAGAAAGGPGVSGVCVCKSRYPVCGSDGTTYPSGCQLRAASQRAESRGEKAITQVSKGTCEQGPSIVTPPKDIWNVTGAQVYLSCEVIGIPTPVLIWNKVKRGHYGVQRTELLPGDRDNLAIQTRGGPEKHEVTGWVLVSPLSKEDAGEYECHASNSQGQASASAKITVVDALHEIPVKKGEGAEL
Description: as §2

B1: anti-IGFBP7 nanobody A04 (VHH)
VHH: VQLQESGGGLVQPGGSLRLSCAASGTFTINTYLWYRQPPGKQREFVAAITRGGSINYADSVKGRFTISRDNAKKTVYLQMNSLKPEDTAVYVCNIKAHPNPWGFDNDYWGQGTQVTVSS
notes: Llama nanobody expressed in E. coli as His6-tagged protein; also called A4; A4 VHH; not shown: His6 tag
Question: Which “percent blocking of the CD93-IGFBP7 interaction” value (“percent blocking” below) [1] does the source give for B1 here?
Answer: The value was ≥ 50%.

B2: A11 mIgG2a (antibody, V domains shown)
VH: VQLQESEGGWSGGGSGSGDFDYEKMANANNGAMTDNADAGKQREFVAAITSGGSINYADSVKGRFTISRDNTKKTVYLQMNSLKPEDTAVYVCNIKAHPNPWGFDNDYWGQGTQVTVSS
Question: With B2 as the binder, how does the Kd [2] read?
Answer: Its Kd is 0.0129 nM.

Question: What about the Kd [3] of the same binder?
Answer: The Kd was 0.0177 nM.

B3: anti-IGFBP7 nanobody A07 (VHH)
VHH: VQLQESEGGWSGGGSGSGDFGYDKMANAINGAMTDNADAGKQREFVAAITSGGSINYADSVKGRFTISTDNAKKTVYLQMNSLKPEDTAVYVCNIKAHPNPWGFDNDYWGQGTPATASS
notes: Llama nanobody expressed in E. coli as His6-tagged protein; also called A7; not shown: His6 tag
Question: Which “percent blocking” value [1] does the source give for B3 here?
Answer: The value was ≥ 50%.

B4: anti-IGFBP7 nanobody A11 (VHH)
VHH: VQLQESEGGWSGGGSGSGDFDYEKMANANNGAMTDNADAGKQREFVAAITSGGSINYADSVKGRFTISRDNTKKTVYLQMNSLKPEDTAVYVCNIKAHPNPWGFDNDYWGQGTQVTVSS
notes: Llama nanobody expressed in E. coli as His6-tagged protein; also called A11 VHH; not shown: His6 tag
Question: With B4 as the binder, how does the “percent blocking” value [1] read?
Answer: The value was ≥ 50%.

B5: A1-mIgG1 nanobody Fc-fusion (Fc fusion)
chain: VQLQESGGGLVQAGGSLRLSCAASGSLFAIDKWGWYRQVAGNERELVAWRYSPVSINYGDSVKGRFTVSGDSSRKRVYLQMNSLKPDDTAVYRCAAVISGAWYWGQGTQVTVSS
notes: VHH fused with mIgG1 Fc fragment, expressed in Expi293 cells; also called monospecific A1-mIgG1; not shown: mouse IgG1 Fc fragment (mIgG1 Fc)
Question: For B5, which Kd [4] is on record?
Answer: Its Kd is 3.82 nM.

Question: What about the Kd [5] of the same binder?
Answer: Its Kd is 25.8 nM.

Question: And the Kd [6]?
Answer: Its Kd is 3.82 nM.

Question: And the Kd [7]?
Answer: The Kd was 25.8 nM.

Question: Does B5 bind [8]?
Answer: Result: binds

Question: What about the Kd [9] of the same binder?
Answer: The Kd was 3.19 nM.

Question: Does B5 bind [10]?
Answer: Result: binds

B6: anti-IGFBP7 nanobody Fc-fusion construct derived from A1 (Fc isotype not told) (Fc fusion)
chain: VQLQESGGGLVQAGGSLRLSCAASGSLFAIDKWGWYRQVAGNERELVAWRYSPVSINYGDSVKGRFTVSGDSSRKRVYLQMNSLKPDDTAVYRCAAVISGAWYWGQGTQVTVSS
notes: may be the same as A1-mIgG2a or A1-mIgG1; not shown: mouse Fc fragment, mIgG2a or mIgG1
Question: Does B6 bind [11]?
Answer: Result: binds

B7: anti-IGFBP7 nanobody A01 (VHH)
VHH: VQLQESGGGLVQAGGSLRLSCAASGSLFAIDKWGWYRQVAGNERELVAWRYSPVSINYGDSVKGRFTVSGDSSRKRVYLQMNSLKPDDTAVYRCAAVISGAWYWGQGTQVTVSS
notes: Llama nanobody expressed in E. coli as His6-tagged protein; also called A1; A1 VHH; not shown: His6 tag
Question: Does B7 bind [12]?
Answer: Result: binds

Question: Does B7 bind [13]?
Answer: Result: binds

Question: Does B7 bind [14]?
Answer: Result: binds

Question: Does B7 bind [15]?
Answer: Result: binds
